Experimental data taken from patent US20220298257A1.

What was measured:
[1] = biological target: full-length human CD22 fused with flag and Myc tags at the C-terminus, on HEK293 or K562 cells (human) (UniProt P20273); experiment: ELISA, IgG format; antigen format not described
[2] = biological target: full-length human CD22 fused with flag and Myc tags at the C-terminus, on HEK293 or K562 cells (human) (UniProt P20273); experiment: cell-based or functional assay
[3] = biological target: full-length human CD22 fused with flag and Myc tags at the C-terminus, on HEK293 or K562 cells (human) (UniProt P20273); experiment: FACS on CD22-expressing cells (HEK293-CD22 by the table's head), anti-hFc Alexa 488

Chain of full-length human CD22 fused with flag and Myc tags at the C-terminus, on HEK293 or K562 cells (human) (P20273 20-847): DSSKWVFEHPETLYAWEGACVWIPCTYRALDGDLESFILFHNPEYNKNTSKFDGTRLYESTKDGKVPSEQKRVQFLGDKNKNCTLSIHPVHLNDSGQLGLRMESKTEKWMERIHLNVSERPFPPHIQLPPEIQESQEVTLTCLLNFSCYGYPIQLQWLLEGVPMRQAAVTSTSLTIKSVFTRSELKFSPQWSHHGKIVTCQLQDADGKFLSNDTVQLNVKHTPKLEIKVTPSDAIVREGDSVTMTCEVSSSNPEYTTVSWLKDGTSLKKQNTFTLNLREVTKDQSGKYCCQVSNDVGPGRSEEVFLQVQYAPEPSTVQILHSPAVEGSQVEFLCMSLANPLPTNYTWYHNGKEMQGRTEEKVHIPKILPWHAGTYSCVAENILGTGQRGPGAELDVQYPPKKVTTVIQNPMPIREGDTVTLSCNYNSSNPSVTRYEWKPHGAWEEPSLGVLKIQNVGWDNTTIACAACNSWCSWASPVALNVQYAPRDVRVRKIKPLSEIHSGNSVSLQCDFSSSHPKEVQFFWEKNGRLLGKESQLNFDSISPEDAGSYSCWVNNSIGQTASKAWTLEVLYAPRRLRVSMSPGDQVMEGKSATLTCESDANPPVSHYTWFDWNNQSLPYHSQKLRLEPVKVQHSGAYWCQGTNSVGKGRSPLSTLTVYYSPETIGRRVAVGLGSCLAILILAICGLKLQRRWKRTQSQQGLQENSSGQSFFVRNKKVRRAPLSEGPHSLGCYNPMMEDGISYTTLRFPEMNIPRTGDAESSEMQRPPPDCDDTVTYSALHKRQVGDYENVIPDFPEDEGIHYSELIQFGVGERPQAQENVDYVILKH

BL22 (anti-CD22) (antibody)
EC50 [1]: 0.004 nM
EC50 in ADCC assay (Promega ADCC Bioreporter, CD22/HEK293 target cells) [2]: 3.31 nM
T½ (Hour) of internalization, CD22/HEK293 cells, pHrodo secondary [2]: 3.95 Hour
EC50 [3]: 0.044 nM
